Results published in patent US20140206608A1 (priority 2012, published 2014).
Where two headings read alike, the source gives them in different places. *1 amine or outer side, *2 acyl side, *3 side chain or, on linkers, in order; H or OH if unused. Where no end group is shown, it is not given here. Side-chain parts run from the residue outwards. [ ]: non-standard residue; d: D form. The star is where a group is joined. γGlu = O=C(O)[C@H](CCC(=O)[*:2])N[*:1]; Palmitoyl = CCCCCCCCCCCCCCCC(=O)*; x70 = not defined here; Aib = CC(C)(N)C(=O)O

T1: human GIP receptor (hGIP R) (Homo sapiens, UniProt P48546)
T1 construct: expressed in transfected cells; host or cells: HEK-293
T1 sequence (P48546 22-466): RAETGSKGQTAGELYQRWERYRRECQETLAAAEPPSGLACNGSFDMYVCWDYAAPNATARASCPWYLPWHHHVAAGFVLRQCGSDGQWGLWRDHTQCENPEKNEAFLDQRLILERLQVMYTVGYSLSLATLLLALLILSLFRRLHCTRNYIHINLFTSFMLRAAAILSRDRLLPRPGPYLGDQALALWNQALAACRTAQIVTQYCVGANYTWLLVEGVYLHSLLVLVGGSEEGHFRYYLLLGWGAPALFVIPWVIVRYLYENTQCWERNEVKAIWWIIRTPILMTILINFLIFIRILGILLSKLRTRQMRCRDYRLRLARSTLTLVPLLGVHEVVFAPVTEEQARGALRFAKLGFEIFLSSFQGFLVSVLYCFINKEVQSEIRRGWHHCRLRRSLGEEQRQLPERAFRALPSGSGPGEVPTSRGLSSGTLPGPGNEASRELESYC

T2: human GIP receptor (human, UniProt P48546 22-466)
T2 sequence (looked up): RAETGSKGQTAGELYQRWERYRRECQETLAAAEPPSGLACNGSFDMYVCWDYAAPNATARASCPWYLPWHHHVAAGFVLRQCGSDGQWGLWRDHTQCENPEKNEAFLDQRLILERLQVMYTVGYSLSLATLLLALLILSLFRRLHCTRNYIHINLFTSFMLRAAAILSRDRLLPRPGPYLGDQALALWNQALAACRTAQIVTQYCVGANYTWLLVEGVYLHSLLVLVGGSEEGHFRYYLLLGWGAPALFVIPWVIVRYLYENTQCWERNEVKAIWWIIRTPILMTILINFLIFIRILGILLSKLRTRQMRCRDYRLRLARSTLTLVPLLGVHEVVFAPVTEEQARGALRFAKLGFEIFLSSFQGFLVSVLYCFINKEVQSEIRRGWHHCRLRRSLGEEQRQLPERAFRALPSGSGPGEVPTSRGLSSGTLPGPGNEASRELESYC


Columns and labels:
[1] = molecular target: T3, human GLP-1 receptor (hGLP-1 R) (Homo sapiens, UniProt P43220); assay: cAMP response of HEK-293 cells stably expressing human GLP-1 receptor (HTRF); assay type: cell-based; conditions: cAMP formation
T3 construct: expressed in transfected cells; host or cells: HEK-293
Method: (§1) cAMP content of cells was determined using a kit from Cisbio Corp. (cat. no. 62AM4PEC) based on HTRF (Homogenous Time Resolved Fluorescence). For preparation, cells were split into T175 culture flasks and grown overnight to near confluency in medium (DMEM/10% FBS). Medium was then removed and cells washed with PBS lacking calcium and magnesium, followed by proteinase treatment with accutase (Sigma-Aldrich cat. no. A6964). Detached cells were washed and resuspended in assay buffer (1×HBSS; 20 mM HEPES, 0.1% BSA, 2 mM IBMX) and cellular density determined. They were then diluted to 400000 cells/ml and 25 μl-aliquots dispensed into the wells of 96-well plates. For measurement, 25 μl of test compound in assay buffer was added to the wells, followed by incubation for 30 minutes at room temperature.

[2] = molecular target: T1, human GIP receptor (hGIP R); assay: cAMP response of HEK-293 cells stably expressing human GIP receptor (HTRF); assay type: cell-based
Method: as §1

[3] = molecular target: T4, human glucagon receptor (hGLUC R) (Homo sapiens, UniProt P47871); assay: cAMP response of HEK-293 cells stably expressing human glucagon receptor (HTRF); assay type: cell-based; conditions: EC50 hGLUC R, Table 7; cAMP formation
T4 construct: expressed in transfected cells; host or cells: HEK-293
Method: as §1

human GLP-1 receptor = human GLP-1 receptor (human, UniProt P43220 24-463); assay: cell-based or functional assay
human GIP receptor = molecular target: T2, human GIP receptor; assay: cell-based or functional assay
human glucagon receptor = human glucagon receptor (human, UniProt P47871 26-477); assay: cell-based or functional assay
Chain of human glucagon receptor (P47871 26-477): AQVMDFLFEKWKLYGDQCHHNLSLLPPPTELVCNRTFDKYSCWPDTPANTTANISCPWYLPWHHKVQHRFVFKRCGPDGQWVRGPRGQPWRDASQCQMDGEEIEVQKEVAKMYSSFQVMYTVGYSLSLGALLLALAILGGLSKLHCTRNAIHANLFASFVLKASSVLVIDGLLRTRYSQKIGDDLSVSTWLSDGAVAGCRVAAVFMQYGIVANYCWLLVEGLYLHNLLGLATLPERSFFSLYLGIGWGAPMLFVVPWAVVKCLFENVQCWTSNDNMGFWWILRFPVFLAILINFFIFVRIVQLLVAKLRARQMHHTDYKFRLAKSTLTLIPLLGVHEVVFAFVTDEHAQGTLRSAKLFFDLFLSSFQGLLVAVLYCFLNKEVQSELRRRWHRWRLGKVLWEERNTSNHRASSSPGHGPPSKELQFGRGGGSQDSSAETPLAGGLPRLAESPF

T3 sequence (P43220 24-463): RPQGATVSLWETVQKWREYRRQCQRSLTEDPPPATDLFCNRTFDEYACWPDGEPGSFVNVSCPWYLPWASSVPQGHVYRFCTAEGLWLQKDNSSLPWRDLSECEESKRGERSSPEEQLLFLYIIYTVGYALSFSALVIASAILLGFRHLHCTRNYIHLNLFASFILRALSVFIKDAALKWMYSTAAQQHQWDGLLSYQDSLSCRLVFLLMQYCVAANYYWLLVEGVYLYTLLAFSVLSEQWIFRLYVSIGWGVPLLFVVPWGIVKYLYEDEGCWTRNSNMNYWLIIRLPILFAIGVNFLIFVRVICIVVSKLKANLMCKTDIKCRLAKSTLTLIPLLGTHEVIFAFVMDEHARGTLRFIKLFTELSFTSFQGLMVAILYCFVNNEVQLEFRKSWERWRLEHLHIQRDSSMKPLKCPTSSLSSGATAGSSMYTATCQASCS
T4 sequence (P47871 26-477): as the sequence (P47871 26-477) above

Molecule | EC50 hGLP-1 R [pM] (formed cAMP) (human GLP-1 receptor) | EC50 hGIP R [pM] (formed cAMP) (human GIP receptor) | EC50 hGLUC R [pM] (formed cAMP) (human glucagon receptor) | other results
CCCCCCCCCCCCCCCC(=O)N[C@@H](CCC(=O)NCCCC[C@H](NC(=O)[C@H](CCC(N)=O)NC(=O)[C@@H](NC(=O)[C@H](CO)NC(=O)[C@H](CC(C)C)NC(=O)[C@H](CC(=O)O)NC(=O)[C@H](CO)NC(=O)[C@@H](NC(=O)[C@H](Cc1ccccc1)NC(=O)[C@@H](NC(=O)CNC(=O)[C@H](CCC(=O)O)NC(=O)C(C)(C)NC(=O)[C@@H](N)Cc1ccc(O)cc1)[C@@H](C)O)[C@@H](C)O)[C@@H](C)CC)C(=O)N[C@@H](CCC(=O)O)C(=O)N[C@@H](CCCCN)C(=O)N[C@@H](CCC(=O)O)C(=O)N[C@@H](C)C(=O)N[C@H](C(=O)N[C@@H](CCCNC(=N)N)C(=O)N[C@@H](CC(C)C)C(=O)N[C@@H](Cc1ccccc1)C(=O)N[C@H](C(=O)N[C@@H](CCC(=O)O)C(=O)N[C@@H](Cc1c[nH]c2ccccc12)C(=O)N[C@@H](CC(C)C)C(=O)N[C@@H](CCCCN)C(=O)N[C@@H](CC(N)=O)C(=O)NCC(=O)NCC(=O)N1CCC[C@H]1C(=O)N[C@@H](CO)C(=O)N[C@@H](CO)C(=O)NCC(=O)N[C@@H](C)C(=O)N1CCC[C@H]1C(=O)N1CCC[C@H]1C(=O)N1CCC[C@H]1C(=O)N[C@@H](CO)C(N)=O)[C@@H](C)CC)C(C)C)C(=O)O [SEQ ID NO: 8, Y-Aib-E-G-T-F-T-S-D-L-S-I-Q-K(γE-x53)-EKEAVRLFIEWLKNGGPSSGAPPPS-NH2] |  |  |  | EC50 ([1]; Table 7, read-out: EC50 hGLP-1 R): 0.0201 nM; EC50 ([2]; Table 7, cAMP formation, read-out: EC50 hGIP R): 0.0167 nM
CCCCCCCCCCCCCCCC(=O)N[C@@H](CCC(=O)NCCCC[C@H](NC(=O)[C@H](CCC(N)=O)NC(=O)[C@@H](NC(=O)[C@H](CO)NC(=O)[C@H](CC(C)C)NC(=O)[C@H](CC(=O)O)NC(=O)[C@H](CO)NC(=O)[C@@H](NC(=O)[C@H](Cc1ccccc1)NC(=O)[C@@H](NC(=O)CNC(=O)[C@H](CCC(=O)O)NC(=O)C(C)(C)NC(=O)[C@@H](N)Cc1ccc(O)cc1)[C@@H](C)O)[C@@H](C)O)[C@@H](C)CC)C(=O)N[C@@H](CCC(=O)O)C(=O)N[C@@H](CCC(=O)O)C(=O)N[C@@H](CCC(=O)O)C(=O)N[C@@H](C)C(=O)N[C@H](C(=O)N[C@@H](CCCNC(=N)N)C(=O)N[C@@H](CC(C)C)C(=O)N[C@@H](Cc1ccccc1)C(=O)N[C@H](C(=O)N[C@@H](CCC(=O)O)C(=O)N[C@@H](Cc1c[nH]c2ccccc12)C(=O)N[C@@H](CC(C)C)C(=O)N[C@@H](CCCCN)C(=O)N[C@@H](C)C(=O)NCC(=O)NCC(=O)N1CCC[C@H]1C(=O)N[C@@H](CO)C(=O)N[C@@H](CO)C(=O)NCC(=O)N[C@@H](C)C(=O)N1CCC[C@H]1C(=O)N1CCC[C@H]1C(=O)N1CCC[C@H]1C(=O)N[C@@H](CO)C(N)=O)[C@@H](C)CC)C(C)C)C(=O)O [SEQ ID NO: 11, Y-Aib-E-G-T-F-T-S-D-L-S-I-Q-K(γE-x53)-EEEAVRLFIEWLKAGGPSSGAPPPS-NH2] |  |  |  | EC50 [2]: 0.0057 nM
CCCCCCCCCCCCCCCCCC(=O)N[C@@H](CCC(=O)NCCCC[C@H](NC(=O)[C@H](CCC(N)=O)NC(=O)[C@@H](NC(=O)[C@H](CO)NC(=O)[C@H](CC(C)C)NC(=O)[C@H](CC(=O)O)NC(=O)[C@H](CO)NC(=O)[C@@H](NC(=O)[C@H](Cc1ccccc1)NC(=O)[C@@H](NC(=O)CNC(=O)[C@H](CCC(=O)O)NC(=O)C(C)(C)NC(=O)[C@@H](N)Cc1ccc(O)cc1)[C@@H](C)O)[C@@H](C)O)[C@@H](C)CC)C(=O)N[C@@H](CCC(=O)O)C(=O)N[C@@H](CCC(=O)O)C(=O)N[C@@H](CCC(=O)O)C(=O)N[C@@H](C)C(=O)N[C@H](C(=O)N[C@@H](CCCNC(=N)N)C(=O)N[C@@H](CC(C)C)C(=O)N[C@@H](Cc1ccccc1)C(=O)N[C@H](C(=O)N[C@@H](CCC(=O)O)C(=O)N[C@@H](Cc1c[nH]c2ccccc12)C(=O)N[C@@H](CC(C)C)C(=O)N[C@@H](CCCCN)C(=O)NC(C)(C)C(=O)NCC(=O)NCC(=O)N1CCC[C@H]1C(=O)N[C@@H](CO)C(=O)N[C@@H](CO)C(=O)NCC(=O)N[C@@H](C)C(=O)N1CCC[C@H]1C(=O)N1CCC[C@H]1C(=O)N1CCC[C@H]1C(=O)N[C@@H](CO)C(N)=O)[C@@H](C)CC)C(C)C)C(=O)O [SEQ ID NO: 12, Y-Aib-E-G-T-F-T-S-D-L-S-I-Q-K(γE-x70)-E-E-E-A-V-R-L-F-I-E-W-L-K-Aib-G-G-P-S-S-G-A-P-P-P-S-NH2] |  |  |  | EC50 ([1]; EC50 hGLP-1 R, Table 7): 0.0119 nM; EC50 [3]: 95.9 nM
H-YAEGTFTSDVSIYLEGQAAKEFIAWLVKGR-NH2 [SEQ ID NO: 7, YAEGTFTSDVSIYLEGQAAKEFIAWLVKGR-NH2, reference compound] |  |  |  | EC50 ([1]; Table 2, read-out: EC50 hGLP-1 R): 0.005 nM; EC50 ([2]; Table 2, cAMP formation, read-out: EC50 hGIP R): 3.66 nM
Tyr(1)Ile(12)-GLP1 (peptide) | 5 pM | 3660 pM |  | 
Y[Aib]EGTFTSDLSIQK([γGlu-x70])EKEAVRLFIEWLKAGGPSSGAPPPS-NH2 (reading uncertain) [SEQ ID NO: 13] | 21.2 pM | 16.8 pM | 200000 pM | 
Y[Aib]EGTFTSDLSIQK([γGlu-x70])EEEAVRLFIEWLK[Aib]GGPSSGAPPPS-NH2 (reading uncertain) [SEQ ID NO: 9] | 26.7 pM | 14.6 pM | 164000 pM | 
Y[Aib]EGTFTSDLSIQK([γGlu-x70])EEEAVRLFIEWLKAGGPSSGAPPPS-NH2 (reading uncertain) [SEQ ID NO: 10] | 12.5 pM | 6.7 pM | > 1e+06 pM | 
Y[Aib]EGTFTSDLSIQK([γGlu-x70])EEEAVRLFIEWLK[Aib]GGPSSGAPPPS-NH2 (reading uncertain) [SEQ ID NO: 12] | 11.9 pM | 14.6 pM | 95900 pM | 
Y[Aib]EGTFTSDLSIQK([γGlu-Palmitoyl])EEEAVRLFIEWLKAGGPSSGAPPPS-NH2 (N-terminus assumed; SMILES CCCCCCCCCCCCCCCC(=O)N[C@@H](CCC(=O)NCCCC[C@H](NC(=O)[C@H](CCC(N)=O)NC(=O)[C@@H](NC(=O)[C@H](CO)NC(=O)[C@H](CC(C)C)NC(=O)[C@H](CC(=O)O)NC(=O)[C@H](CO)NC(=O)[C@@H](NC(=O)[C@H](Cc1ccccc1)NC(=O)[C@@H](NC(=O)CNC(=O)[C@H](CCC(=O)O)NC(=O)C(C)(C)NC(=O)[C@@H](N)Cc1ccc(O)cc1)[C@@H](C)O)[C@@H](C)O)[C@@H](C)CC)C(=O)N[C@@H](CCC(=O)O)C(=O)N[C@@H](CCC(=O)O)C(=O)N[C@@H](CCC(=O)O)C(=O)N[C@@H](C)C(=O)N[C@H](C(=O)N[C@@H](CCCNC(=N)N)C(=O)N[C@@H](CC(C)C)C(=O)N[C@@H](Cc1ccccc1)C(=O)N[C@H](C(=O)N[C@@H](CCC(=O)O)C(=O)N[C@@H](Cc1c[nH]c2ccccc12)C(=O)N[C@@H](CC(C)C)C(=O)N[C@@H](CCCCN)C(=O)N[C@@H](C)C(=O)NCC(=O)NCC(=O)N1CCC[C@H]1C(=O)N[C@@H](CO)C(=O)N[C@@H](CO)C(=O)NCC(=O)N[C@@H](C)C(=O)N1CCC[C@H]1C(=O)N1CCC[C@H]1C(=O)N1CCC[C@H]1C(=O)N[C@@H](CO)C(N)=O)[C@@H](C)CC)C(C)C)C(=O)O) [SEQ ID NO: 11] | 9.3 pM | 5.7 pM | 429000 pM | 
